Here are results for 32 sequences from the Immune Epitope Database (IEDB).

The target in one assay is HLA-A*02:03. In words: IEDB peptide-MHC binding, purified MHC/competitive/radioactivity; filed as Kd, often an IC50 or EC50 that approximates it; ≥ and ≤ were set here for values at or beyond the usual limits of such assays.
For a further assay, the target named is HLA-A*02:06. The description is as above.
The target of a further assay is HLA-A*02:02. Described as above.
The target in another assay is HLA-B*51:01. The description is as above.
In another assay the target is HLA-B*58:01. In words: IEDB peptide-MHC binding, purified MHC/direct/fluorescence; filed as Kd, often an IC50 or EC50 that approximates it; ≥ and ≤ were set here for values at or beyond the usual limits of such assays.
The target in another assay is HLA-B*07:02. Described as above. Conditions: source organism: Homo sapiens.
A further assay concerns the target HLA-A*03:01. The assay is described as above.
A further assay addresses HLA-B*53:01. The assay is described as follows: IEDB peptide-MHC binding, purified MHC/competitive/radioactivity; filed as Kd, often an IC50 or EC50 that approximates it; ≥ and ≤ were set here for values at or beyond the usual limits of such assays.
For the next assay, the target named is HLA-A*30:02. The assay is described as above. Conditions: source organism: Dengue virus 3 Martinique/1243/1999.
The target in the next assay is HLA-A*69:01. The assay is described as follows: IEDB peptide-MHC binding, purified MHC/direct/fluorescence; filed as Kd, often an IC50 or EC50 that approximates it; ≥ and ≤ were set here for values at or beyond the usual limits of such assays. Conditions: source organism: Homo sapiens.
For the next assay, the target named is HLA-A*11:01. Described as above. Conditions: source organism: Homo sapiens.
The target in a further assay is HLA-A*01:01. The description is as above. Conditions: source organism: Homo sapiens.
In another assay the target is HLA-A*02:01. The assay is described as follows: IEDB peptide-MHC binding, purified MHC/competitive/fluorescence; filed as Kd, often an IC50 or EC50 that approximates it; ≥ and ≤ were set here for values at or beyond the usual limits of such assays. Conditions: source organism: Variola virus.
Where [1] appears, read: source organism: Mammarenavirus whitewaterense.
[2] abbreviates: source organism: Dengue virus 3 Martinique/1243/1999.
Where [3] appears, read: source organism: Vaccinia virus WR.
The mark [4] stands for this setting: source organism: Dengue virus 1 Brazil/97-11/1997.
The mark [5] stands for this setting: source organism: SARS coronavirus Tor2.
Setting [6] is: source organism: Mammarenavirus brazilense.

pKd: −log10 of the molar value.

Regarding FSAVISGSV, the negative-log Kd (pKd) in the assay with HLA-A*02:03 (setting [1]) is 4.85; with HLA-A*02:06 (setting [1]) it was 6.79; in the assay with HLA-A*02:02 (setting [1]) it was 7.32.
As to PPFGESNIV, in the assay with HLA-B*51:01 (setting [2]), the negative logarithm of the Kd (pKd) was 5.75.
In the case of NIKISLNEIL, the pKd was 5.86 in the assay with HLA-A*02:03 (setting [3]), 6.25 in the assay with HLA-A*02:06 (setting [3]) and 6.15 with HLA-A*02:02 (setting [3]).
Turning to FGCKPLTMFL, the negative logarithm of the Kd (pKd) in the assay with HLA-B*51:01 (setting [4]) is ≤ 4.45.
For YPAEITLTW, the pKd with HLA-B*58:01 (source organism: Homo sapiens) was 7.26; with HLA-B*07:02, 6.83.
As to QLMCQPILLL, the results for the negative-log Kd (pKd) in the assay with HLA-A*02:03 (setting [5]), with HLA-A*02:06 (setting [5]) and with HLA-A*02:02 (setting [5]) were 6.66, 6.49 and 7.03, respectively.
In the assay with HLA-A*03:01 (source organism: Giardia lamblia ATCC 50803), IMKQAASMK showed a pKd of 7.20.
For the sequence KLLNMRDLIV, the negative-log Kd (pKd) with HLA-A*02:03 (setting [3]) was 7.53; in the assay with HLA-A*02:06 (setting [3]), 8.56; with HLA-A*02:02 (setting [3]), 6.71.
For IMTSTRTIIL, in that order: 7.28, 6.36 and 5.99.
On to KTVAGSFAS, for which the negative logarithm of the Kd (pKd) in the assay with HLA-A*02:03 (setting [1]) is 5.42; in the assay with HLA-A*02:06 (setting [1]), 5.04; with HLA-A*02:02 (setting [1]), 5.80.
Consider IAGGVCYYLL, for which the negative-log Kd (pKd) in the assay with HLA-A*02:03 (setting [3]) was 4.84; in the assay with HLA-A*02:06 (setting [3]), 6.18; with HLA-A*02:02 (setting [3]), 5.34.
LPEEQDQNYV: the pKd with HLA-B*51:01 (setting [2]) was 4.92.
On to PPTAGILKRW, for which the pKd in the assay with HLA-B*53:01 (source organism: Dengue virus 2 Jamaica/1409/1983) is 5.49.
As for TTELNIVDEI, the pKd with HLA-A*02:03 (setting [3]) was ≤ 4.15; in the assay with HLA-A*02:06 (setting [3]) it was ≤ 4.67; with HLA-A*02:02 (setting [3]), ≤ 4.41.
In the same order, the values of YIKDLKHAT are ≤ 4.11, ≤ 4.40 and 4.73.
For SALMTLDDL, in that order: 6.15, 7.00 and 6.39.
Regarding IWLKLREVY, the pKd with HLA-A*30:02 is ≤ 4.11.
FVEGLSGATW: the pKd with HLA-B*53:01 (setting [4]) is 7.84.
For the sequence HLALTCILK, the pKd in the assay with HLA-A*03:01 (source organism: Salmonella enterica subsp. enterica serovar Typhi) was 6.91.
Take DSDGSFFLY: the negative-log Kd (pKd) is ≤ 4.60 with HLA-A*69:01, ≤ 4.69 with HLA-A*11:01 and 7.60 with HLA-A*01:01.
Regarding WLGAAITLVV, the negative-log Kd (pKd) in the assay with HLA-A*02:03 (setting [3]) was 7.11; in the assay with HLA-A*02:06 (setting [3]), 5.74; in the assay with HLA-A*02:02 (setting [3]), 7.71.
In the case of KLTFLDVEV, in the assay with HLA-A*02:01, the pKd is 8.00.
For VQLPKRGVRV, the pKd in the assay with HLA-A*02:03 (setting [3]) is 5.66; with HLA-A*02:06 (setting [3]), 7.38; with HLA-A*02:02 (setting [3]), ≤ 4.47.
For DQLVFNSISA, in that order: 6.54, 6.12 and 6.69.
With HSLPRCWLV, the pKd is 6.84 with HLA-A*02:03 (setting [6]), 6.49 with HLA-A*02:06 (setting [6]) and 6.18 with HLA-A*02:02 (setting [6]).
With YLSKEDRIIT, the figures for the negative logarithm of the Kd (pKd) with HLA-A*02:03 (setting [3]), with HLA-A*02:06 (setting [3]) and with HLA-A*02:02 (setting [3]) were 5.25, ≤ 4.31 and 5.89, respectively.
Consider FLTNKLLLFA, for which the negative-log Kd (pKd) with HLA-A*02:03 (setting [5]) was 8.85; with HLA-A*02:06 (setting [5]), 8.13; with HLA-A*02:02 (setting [5]), 9.38.
Turning to LVIRNEVNDT, the pKd in the assay with HLA-A*02:03 (setting [3]) was 4.82; in the assay with HLA-A*02:06 (setting [3]) it was 5.66; in the assay with HLA-A*02:02 (setting [3]), 5.26.
As to ELAYYNSCML, the pKd is 6.82 with HLA-A*02:03 (setting [3]), 5.45 with HLA-A*02:06 (setting [3]) and 5.73 with HLA-A*02:02 (setting [3]).
In the same order, the values of MAFDISVNA are 7.82, 7.88 and 6.72.
As for KGGEAQFLV, in the assay with HLA-B*58:01 (source organism: Pseudomonas aeruginosa), the negative-log Kd (pKd) is 6.13.
As for VAWRTATLI, the pKd with HLA-B*51:01 (setting [2]) is 6.86.
